In this assay the target is strep-CsoS1A (hexameric shell protein CsoS1A) (Halothiobacillus neapolitanus) (UniProt P45689). The assay can be described thus: turbidity.
Sequence of UniProt P45689 (P45689 whole entry): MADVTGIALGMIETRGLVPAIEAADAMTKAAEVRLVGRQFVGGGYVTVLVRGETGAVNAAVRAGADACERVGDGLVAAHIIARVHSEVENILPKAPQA

“His-CsoS2B (full-length CsoS2, long form) (from UniProt O85041-1 1-869) (natural protein)” returned a fold turbidity with CsoS1A against wtMR of 5 fold.

The values are drawn from article doi:10.1101/2023.07.08.548221.
